What was measured:
[1] = target: complexin 2 (pig (endogenous in boar sperm)); experiment: SDS-resistant complexes on SDS-PAGE, Western blot (bands of the same size); whole sperm lysate, remaining head fraction and mixed vesicles of boar sperm treated with bicarbonate and 5 uM Ca2+ ionophore A23187; 35 ug crude protein a lane; non-reducing (RT, no reducing agent) or reducing (100 C, 10 min, 0.1 M DTT) conditions
[2] = target: complexin 2 (pig (endogenous in boar sperm)); experiment: SDS-resistant complexes on SDS-PAGE, Western blot (bands of the same size); boar sperm incubated with bicarbonate (with or without Ca2+ ionophore), lysed in 1% Triton X-100 on ice, sucrose gradient fractions 1-13; non-reducing SDS-PAGE; blots for complexin 1/2, syntaxin 3, SNAP 23, VAMP 2, syntaxin 1B, VAMP 3
[3] = target: complexin 2 (pig (endogenous in boar sperm)); experiment: SDS-resistant complexes on SDS-PAGE, Western blot (bands of the same size); membrane cavitates of bicarbonate-capacitated boar sperm pre-incubated with 0-4 mM CaCl2 and 5 uM Ca2+ ionophore at 37 C for 20 min; non-reducing conditions; blot for complexin 1/2; most complexin left the 95 kDa complex as Ca2+ rose

Measured: stoichiometry N

complexin 2 (natural protein)
2: all assays above

From paper PMC3295773
